Results: PMC8494340, “Enhancers with cooperative Notch binding sites are more resistant to regulation by the Hairless co-repressor” (PLoS Genetics, 2020)

B1: Drosophila Notch intracellular domain, NICD (aa 1763–2142) (domain or fragment, UniProt P07207 1763-2142, looked up)
chain: VLSTQRKRAHGVTWFPEGFRAPAAVMSRRRRDPHGQEMRNLNKQVAMQSQGVGQPGAHWSDDESDMPLPKRQRSDPVSGVGLGNNGGYASDHTMVSEYEEADQRVWSQAHLDVVDVRAIMTPPAHQDGGKHDVDARGPCGLTPLMIAAVRGGGLDTGEDIENNEDSTAQVISDLLAQGAELNATMDKTGETSLHLAARFARADAAKRLLDAGADANCQDNTGRTPLHAAVAADAMGVFQILLRNRATNLNARMHDGTTPLILAARLAIEGMVEDLITADADINAADNSGKTALHWAAAVNNTEAVNILLMHHANRDAQDDKDETPLFLAAREGSYEACKALLDNFANREITDHMDRLPRDVASERLHHDIVRLLDEHVPR
notes: Notch, Drosophila, intracellular domain, residues 1763-2142
B2: Drosophila Mastermind (aa 87–307) (domain or fragment, UniProt P21519 87-307, looked up)
chain: PYNANLGATGGIAGITGGNGAGGPTNPGAVPTAPGDTMPTKRMPVVDRLRRRMENYRRRQTDCVPRYEQAFNTVCEQQNQETTVLQKRFLESKNKRAAKKTDKKLPDPSQQHQQQQHQQQQQHQQHQQHQQAQTMLAGQLQSSVHVQQKFLKRPAEDVDNGPDSFEPPHKLPNNNNNSNSNNNNGNANANNGGNGSNTGNNTNNNGNSTNNNGGSNNNGSE
notes: Mastermind, Drosophila, residues 87-307; also called Mam; MAM

Target: T1, Drosophila Su(H) (aa 98–523) (Drosophila, UniProt P28159 98-523)
T1 construct: Suppressor of Hairless, Su(H), Drosophila, residues 98-523; also called Suppressor of Hairless; CSL transcription factor
T1 sequence (P28159 98-523): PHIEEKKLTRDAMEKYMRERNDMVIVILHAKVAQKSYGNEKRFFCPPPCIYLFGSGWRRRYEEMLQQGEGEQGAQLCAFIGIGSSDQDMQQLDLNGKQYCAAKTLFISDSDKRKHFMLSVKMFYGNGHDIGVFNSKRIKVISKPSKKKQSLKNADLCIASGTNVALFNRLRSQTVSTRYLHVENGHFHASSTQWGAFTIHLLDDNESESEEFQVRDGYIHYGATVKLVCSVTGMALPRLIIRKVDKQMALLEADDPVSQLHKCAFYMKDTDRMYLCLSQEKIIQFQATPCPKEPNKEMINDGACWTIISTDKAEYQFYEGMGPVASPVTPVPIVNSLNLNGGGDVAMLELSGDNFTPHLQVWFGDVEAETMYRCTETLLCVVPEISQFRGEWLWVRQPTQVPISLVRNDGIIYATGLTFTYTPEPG
Assay: native gel or EMSA; purified proteins mixed with fluorescently labelled 2xCSL17 and 1xSPS15 DNA probes, room temperature 20 minutes; Su(H) 2.5 to 160 nM, 2 μM Hairless or NICD/Mam; the protein complexes are seen bound to the DNA probe; band intensities fitted to a 2-site equilibrium model
Settings: both partners purified

Binder	binding result
B1	binds
B2	binds
